Reference: PMC9769499

Each sequence was assayed against T1, CzcR (Pseudomonas aeruginosa PAO1) (UniProt Q9RLJ1) (assay: EMSA). Settings: Thermo Scientific EMSA kit per manufacturer's instructions; buffer, salt, pH and temperature not stated.
T1 sequence: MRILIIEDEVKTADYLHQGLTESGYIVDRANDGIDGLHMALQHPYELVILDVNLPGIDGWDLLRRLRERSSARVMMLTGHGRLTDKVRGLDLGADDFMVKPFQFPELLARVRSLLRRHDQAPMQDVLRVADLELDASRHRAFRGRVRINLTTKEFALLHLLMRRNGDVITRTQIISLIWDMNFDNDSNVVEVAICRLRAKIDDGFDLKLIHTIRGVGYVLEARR

For “CATCTGCTTCATACCTTGTGTTGTCGTCTTCCCGGAACGCCCCTTCCAGCGCTCTCCGGTATTGGCGGGAACGATGCGCCATCGCTCCCGGCCCGGCGGAAGCCACCTTCGCTTCCGTCACCCGCGCCACGCGCGGTTCTTCCCACGTCCTCA (double strand) [PfleN]”, which binding is on record?
The binding was “binds”.

Which binding does the source give for “CTGACTCATGACTCTTCCTCCAACAGCCGCGGCTTTTTTGACGCCGCCCGGCACTTTGCAGAGGAGTTAGCAACAAGGGTGCCAAGTCGGCCCCAAGGCCCGGCATCGGCGTTCGCCGCCAATGCCCGCGACCGCTGCAGGGTCCGTCCCTGCTCCGGTTATCGGCAGGCGCGCACGCTCGAACAG (double strand) [PfliE]” here?
The binding was “no binding”.

How did the binding turn out when “GACGTACAGCATCTTGTCCATCGAATCCTCCAGGCACCGGCACAATCCGCCGGGCTTTCTTGCAGGTTATCCAGCAAGCGCCGTGCCAGAATTCGAAAAAACAATTAATACATTGATTTAAAAGGATTTTATAAAACAGAAAGCCTCCTTTCGGAGGCTTCGGGGGCAA (double strand) [PflgF]” was run?
Its binding is “binds”.

How did the binding turn out when “GCAACCGTTCGGAACATTCTTCCCGTCGGGGGTAGGCGAGCGACTTGCCCTGTGGAATAATACTGTCTACTTATACAGTTGTTCGTGGCCGTCCGGCCGCCCTGACTTCGCGAGGACTTCAATGGA (double strand) [recA fragment (PrecA)]” was run?
The binding was “no binding”.

Which binding does the source give for “GCGCACATTGCTGATCAGTTGCGTGCGATCCACTCTCGACTCCCCTGCCCTGCGTATGGCGCCCGTGGGTGGGCGCCGAACAAACTTTTGACGCCGGAATGCGCGTCGGGCGGGTCATTGCAGGAACCGTTCCAACTTTTCAATTCATTGATTGAAAAGGGTTTTCGCCAA (double strand) [PflhA]” here?
Its binding is “no binding”.

Which binding does the source give for “GGTGATTTCCTCCAAAGGACCTATTTCGGTTACCTGAGCTTGCGATCTCTCGGCCTGCTTGCTCAGGTGCCCCAAGAATTCGCGTTCATGGTGTTTATCGGCGTTTCCCGGCGGAGCTTTAGAGAAAAAATCAACATTTTCTTTTTCTCTTCCTCTTCAGTGGGTTACATGCTTCGAAGAGGACTCGCCAATATCGGTCCTGAA (double strand) [PfliC]” here?
The binding was “no binding”.

For “GTTCCAGGGGCTTGCCACCCTTGCCGGCAAGCGGAAGCGGCTTGCCGCTTGCCGCTTCCGGGTTACCCTTAAATAAACTCAAGTTATTGAATATAAAGGTTTTTAATAATTTGGCACGGGCCTTGCTGAAGTGTTGGCGACGAAAGCCACACCGGCAAACAGGTTCGCAGCCATGAGCATCAGTTTCGA (double strand) [PflgB]”, which binding is on record?
Its binding is “binds”.

Which binding does the source give for “TACACAGTGTCCTGTTCGAAACCCGCGCCTGACGCGCGGGTTGAACGACTTGGCATGGTGCTTGCCCTATCGAAGGGATAGGGCAGTACATGCACGGTTTTTTGACGGAGATGGATTATGGCCGGTATCTCGATAGGAGTA (double strand) [PfliD]” here?
Its binding is “no binding”.

With “TCATGGGTGTCGGGCTCGGTGTCGGCGAGGCGGCGAACTGGCTTTTCGAGTATTCGGACTATAGTCTTGCGGCTAGCAACCGATAACAAGAGGGAGCCTAGCAGTCCCCCTCCTTATCCTGTTCATTTCGCACGTCCGGTCCTCATGTCAAAAATCATCGGC (double strand) [PmotA]” as the sequence, how does the binding read?
Its binding is “no binding”.

How did the binding turn out when “TTTCTTAGCCATGCCAAAAATCCGTCGCTATAGCGTCAAATGAAGGGTTTCACAGGGGCAGAGCAAGGGTTGTGCCATTTCTGCAACGCCGCCCCGCCTCCTGGGACCAGCCCCGGAGGGCTGTCCGAGATGATAGACGGCGCGGATATTACAGCCTGGCCACAGGAAATCATCCCCGTCTTTTGCGAAATTGCC (double strand) [PPA1442]” was run?
Its binding is “binds”.
